Experimental data reported in patent publication US20260167699A1 (Chugai, published 2026).

T1: FcγRIIb (human, UniProt P31994 43-217)
T1 construct: extracellular domain; also called 2b
T1 sequence: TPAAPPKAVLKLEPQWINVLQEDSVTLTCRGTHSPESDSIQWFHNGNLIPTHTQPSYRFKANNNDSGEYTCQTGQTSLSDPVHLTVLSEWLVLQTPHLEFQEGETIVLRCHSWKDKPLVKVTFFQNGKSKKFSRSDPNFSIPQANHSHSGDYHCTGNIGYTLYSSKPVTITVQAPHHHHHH

T2: FcγRIIa(R) (human, UniProt P12318 34-217)
T2 construct: extracellular domain; also called FcγRIIa R type; 2aR
T2 sequence: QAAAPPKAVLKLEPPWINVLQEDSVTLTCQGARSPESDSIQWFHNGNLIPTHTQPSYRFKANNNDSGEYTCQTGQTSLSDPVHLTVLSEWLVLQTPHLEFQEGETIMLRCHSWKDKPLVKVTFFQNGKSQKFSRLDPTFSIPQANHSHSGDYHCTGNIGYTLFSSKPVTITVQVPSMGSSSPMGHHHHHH

T3: FcγRIIa(H) (human, UniProt P12318 34-217)
T3 construct: extracellular domain; also called FcγRIIa H type; 2aH
T3 sequence: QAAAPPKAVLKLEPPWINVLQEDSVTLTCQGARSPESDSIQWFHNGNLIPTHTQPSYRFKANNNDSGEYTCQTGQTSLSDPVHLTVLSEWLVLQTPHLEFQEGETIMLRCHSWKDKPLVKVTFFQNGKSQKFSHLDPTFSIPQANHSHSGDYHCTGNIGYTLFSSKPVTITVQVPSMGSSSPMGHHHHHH


Legend:
Assay in all cases: SPR (Biacore), binding relative to GpH7-A5/GpH7-B3/GpL16-k0 x100;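 also: surface plasmon resonance at 25 °C, antibody captured on a sensor chip and soluble FcγR flowed over it in HBS-EP+ running buffer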
[1] = target: T1, FcγRIIb
[2] = target: T4, FcγRIa (human, UniProt P12314 16-292)
T4 construct: extracellular domain; also called 1a
T4 sequence (P12314 other isoform, or with tags, fused parts or gaps): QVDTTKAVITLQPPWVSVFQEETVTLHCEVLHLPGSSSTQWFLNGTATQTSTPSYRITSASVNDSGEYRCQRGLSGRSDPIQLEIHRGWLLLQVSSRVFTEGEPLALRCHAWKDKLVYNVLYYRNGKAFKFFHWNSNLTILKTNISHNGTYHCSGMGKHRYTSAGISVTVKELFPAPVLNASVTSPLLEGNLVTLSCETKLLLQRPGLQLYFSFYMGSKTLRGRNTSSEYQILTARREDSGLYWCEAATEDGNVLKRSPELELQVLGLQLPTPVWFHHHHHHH

[3] = target: T2, FcγRIIa(R)
[4] = target: T3, FcγRIIa(H)

He/Con 2b [1] | He/Con 1a [2] | He/Con 2aR [3] | He/Con 2aH [4] | Binder
50.8% | 93.2% | 62.8% | 81.8% | GpH7-A5/GpH7-B3 variant D270_08L/GpL16-k0 (antibody, human IgG1, kappa, heterodimerized IgG1, one H chain mutated; also called He Ab) heavy 1: not shown heavy 2: not shown light: DIVMTQSPLSLPVTPGEPASISCQASESLVHSNRNTYLHWYLQKPGQSPQLLIYKVSNRFSGVPDRFSGSGSGTDFTLKISRVEAEDVGVYYCSQNTHVPPTFGQGTKVEIERTVAAPSVFIFPPSDEQLKSGTASVVCLLNNFYPREAKVQWKVDNALQSGNSQESVTEQDSKDSTYSLSSTLTLSKADYEKHKVYACEVTHQGLSSPVTKSFNRGEC
50.2% | 99.8% | 65.8% | 70.7% | GpH7-A5/GpH7-B3 variant E269_13S/GpL16-k0 (antibody, human IgG1, kappa, heterodimerized IgG1, one H chain mutated; also called He Ab) heavy 1: not shown heavy 2: not shown light: DIVMTQSPLSLPVTPGEPASISCQASESLVHSNRNTYLHWYLQKPGQSPQLLIYKVSNRFSGVPDRFSGSGSGTDFTLKISRVEAEDVGVYYCSQNTHVPPTFGQGTKVEIERTVAAPSVFIFPPSDEQLKSGTASVVCLLNNFYPREAKVQWKVDNALQSGNSQESVTEQDSKDSTYSLSSTLTLSKADYEKHKVYACEVTHQGLSSPVTKSFNRGEC
52.4% | 101% | 70.2% | 78.7% | GpH7-A5/GpH7-B3 variant E269_02A/GpL16-k0 (antibody, human IgG1, kappa, heterodimerized IgG1, one H chain mutated; also called He Ab) heavy 1: not shown heavy 2: not shown light: DIVMTQSPLSLPVTPGEPASISCQASESLVHSNRNTYLHWYLQKPGQSPQLLIYKVSNRFSGVPDRFSGSGSGTDFTLKISRVEAEDVGVYYCSQNTHVPPTFGQGTKVEIERTVAAPSVFIFPPSDEQLKSGTASVVCLLNNFYPREAKVQWKVDNALQSGNSQESVTEQDSKDSTYSLSSTLTLSKADYEKHKVYACEVTHQGLSSPVTKSFNRGEC
54.8% | 89.5% | 72.2% | 81.3% | GpH7-A5/GpH7-B3 variant D270_14T/GpL16-k0 (antibody, human IgG1, kappa, heterodimerized IgG1, one H chain mutated; also called He Ab) heavy 1: not shown heavy 2: not shown light: DIVMTQSPLSLPVTPGEPASISCQASESLVHSNRNTYLHWYLQKPGQSPQLLIYKVSNRFSGVPDRFSGSGSGTDFTLKISRVEAEDVGVYYCSQNTHVPPTFGQGTKVEIERTVAAPSVFIFPPSDEQLKSGTASVVCLLNNFYPREAKVQWKVDNALQSGNSQESVTEQDSKDSTYSLSSTLTLSKADYEKHKVYACEVTHQGLSSPVTKSFNRGEC
54.1% | 101% | 70.3% | 72.3% | GpH7-A5/GpH7-B3 variant E269_01G/GpL16-k0 (antibody, human IgG1, kappa, heterodimerized IgG1, one H chain mutated; also called He Ab) heavy 1: not shown heavy 2: not shown light: DIVMTQSPLSLPVTPGEPASISCQASESLVHSNRNTYLHWYLQKPGQSPQLLIYKVSNRFSGVPDRFSGSGSGTDFTLKISRVEAEDVGVYYCSQNTHVPPTFGQGTKVEIERTVAAPSVFIFPPSDEQLKSGTASVVCLLNNFYPREAKVQWKVDNALQSGNSQESVTEQDSKDSTYSLSSTLTLSKADYEKHKVYACEVTHQGLSSPVTKSFNRGEC
72.5% | 104% | 85.7% | 111% | GpH7-A5/GpH7-B3 variant D270_10E/GpL16-k0 (antibody, human IgG1, kappa, heterodimerized IgG1, one H chain mutated; also called He Ab) heavy 1: not shown heavy 2: not shown light: DIVMTQSPLSLPVTPGEPASISCQASESLVHSNRNTYLHWYLQKPGQSPQLLIYKVSNRFSGVPDRFSGSGSGTDFTLKISRVEAEDVGVYYCSQNTHVPPTFGQGTKVEIERTVAAPSVFIFPPSDEQLKSGTASVVCLLNNFYPREAKVQWKVDNALQSGNSQESVTEQDSKDSTYSLSSTLTLSKADYEKHKVYACEVTHQGLSSPVTKSFNRGEC
110% | 103% | 113% | 105% | GpH7-A5/GpH7-B3 variant E269_09D/GpL16-k0 (antibody, human IgG1, kappa, heterodimerized IgG1, one H chain mutated; also called He Ab) heavy 1: not shown heavy 2: not shown light: DIVMTQSPLSLPVTPGEPASISCQASESLVHSNRNTYLHWYLQKPGQSPQLLIYKVSNRFSGVPDRFSGSGSGTDFTLKISRVEAEDVGVYYCSQNTHVPPTFGQGTKVEIERTVAAPSVFIFPPSDEQLKSGTASVVCLLNNFYPREAKVQWKVDNALQSGNSQESVTEQDSKDSTYSLSSTLTLSKADYEKHKVYACEVTHQGLSSPVTKSFNRGEC
